# Reference: the supplement of paper PMC10065799, “High-throughput profiling of sequence recognition by tyrosine kinases and SH2 domains using bacterial peptide display” (eLife, 2023)
# Target: EPHB2 (UniProt P29323)
# Assay: phosphorylation enrichment, bacterial display (enrichment ratio); higher = better substrate or ligand; peptides without Tyr show the background
# 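Also: 11-residue human phosphosite peptides and single-mutation variants displayed on the E. coli surface, counted by deep sequencing, each peptide's frequency after selection divided by its frequency in the unselected input library; frequency after pTyr selection over input frequency; kinase dosed for 20-30% of maximal phosphorylation in three min.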
# Sequence of EPHB2 (P29323 whole entry, looked up): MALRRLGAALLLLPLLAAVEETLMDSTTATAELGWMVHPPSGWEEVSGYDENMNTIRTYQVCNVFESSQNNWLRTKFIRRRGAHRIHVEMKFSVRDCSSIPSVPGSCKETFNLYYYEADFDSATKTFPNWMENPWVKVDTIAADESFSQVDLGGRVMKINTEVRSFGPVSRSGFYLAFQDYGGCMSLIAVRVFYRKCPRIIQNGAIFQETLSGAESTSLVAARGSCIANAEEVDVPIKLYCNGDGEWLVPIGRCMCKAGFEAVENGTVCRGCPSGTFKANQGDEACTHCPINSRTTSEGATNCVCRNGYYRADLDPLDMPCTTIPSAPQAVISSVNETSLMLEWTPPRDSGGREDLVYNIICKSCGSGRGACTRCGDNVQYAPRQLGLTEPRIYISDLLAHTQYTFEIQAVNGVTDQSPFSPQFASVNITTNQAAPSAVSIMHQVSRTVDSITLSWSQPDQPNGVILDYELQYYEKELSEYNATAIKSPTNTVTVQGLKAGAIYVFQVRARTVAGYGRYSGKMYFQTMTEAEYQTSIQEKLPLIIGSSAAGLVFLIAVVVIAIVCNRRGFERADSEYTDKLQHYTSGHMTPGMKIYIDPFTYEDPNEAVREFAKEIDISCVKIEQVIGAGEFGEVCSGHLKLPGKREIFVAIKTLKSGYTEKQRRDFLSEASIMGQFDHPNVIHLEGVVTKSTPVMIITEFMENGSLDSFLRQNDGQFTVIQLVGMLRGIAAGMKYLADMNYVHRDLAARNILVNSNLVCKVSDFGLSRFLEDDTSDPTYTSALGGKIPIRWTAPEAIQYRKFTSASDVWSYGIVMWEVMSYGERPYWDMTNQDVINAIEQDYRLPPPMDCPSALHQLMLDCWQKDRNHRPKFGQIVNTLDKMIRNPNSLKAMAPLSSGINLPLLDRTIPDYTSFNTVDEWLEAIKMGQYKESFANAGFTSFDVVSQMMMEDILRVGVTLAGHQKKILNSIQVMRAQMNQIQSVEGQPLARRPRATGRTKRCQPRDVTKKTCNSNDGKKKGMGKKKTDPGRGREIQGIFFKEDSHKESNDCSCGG
row,Sequence,phosphorylation enrichment
1,VEDHFYEGGIG [TKT_Y564_YF],0.543
2,SVNIRYLLFPS [SERAC1_Y548],0.634
3,KLADVYQAELR [GFAP_Y116],0.459
4,ATDLAYYLVCK [ASL_Y375_R379C],0.885
5,NTVLGYFIGCI [GARS1_Y408_R412C],0.63
6,FTHSDYQFGQR [PKP2_Y166_S169G_YF],0.471
7,NGPDVYVLPVT [AATK_Y93_L97V],0.644
8,EFLKNYFTDKA [DSG2_Y775_R773K],0.63
9,VHKEGYNKLNQ [ZNF676_Y98],0.331
10,VDSNPYSRLVA [UBA5_Y53_M57V],0.584
11,VDSAHYKLLET [DTX3L_Y385],0.574
12,SEDANYMRVSC [TTC3_Y1288_K1289M],1.42
13,KVITDYFVDMK [MPP4_Y566_YF],0.547
14,AKQVGCENAGT [PC_Y304_Y304C],0.455
15,TFAVSYLPDMS [FLNC_Y1602_T1599A_YF],0.392
16,SSAETYSRMRL [NBEAL2_Y1835],0.436
17,AVAFLYFKSIG [ADGRL4_Y301_V300L_YF],0.649

row,Sequence,phosphorylation enrichment
1,TLQSMSGCDVG [HLA-B_Y123_Y123S],0.601
2,SVTCTYSPAPN [TP53_Y126_L130P],0.581
3,FSGIFYKPESL [L2HGDH_Y103_H98Y_YF],0.5
4,GPKSTYISSAG [GOLGA5_Y62_A67G],0.382
5,QGLRLYRSHLA [BTK_Y617_P619S],0.408
6,VISNAYVDLSP [HSD17B4_Y602_A606S],0.523
7,YLGEEYVKAVG [TF_Y674],0.391
8,QKLPSYILENN [VPS13B_Y2774],0.701
9,VFDMLYQLANL [USP24_Y1087],1.34
10,VNKIYHPDFIV [LIG3_Y768_Y768H],0.417
11,FADIAYNFRHR [PAH_Y166_G171R_YF],0.425
12,KVALVYGQMNE [ATP5F1B_Y269],0.495
13,FARNCYVAGQF [G6PD_Y107_S106C_YF],0.487
14,IFGVSYDEFRF [CFTR_Y512_YF],0.524
15,HLLRIYFDITD [MMP27_Y307_W304L_YF],0.891
16,STTSDYQWDFS [MTDH_Y364_V368F],0.776

# Target: EPHB1 (UniProt P54762)
# Sequence (P54762 whole entry, looked up): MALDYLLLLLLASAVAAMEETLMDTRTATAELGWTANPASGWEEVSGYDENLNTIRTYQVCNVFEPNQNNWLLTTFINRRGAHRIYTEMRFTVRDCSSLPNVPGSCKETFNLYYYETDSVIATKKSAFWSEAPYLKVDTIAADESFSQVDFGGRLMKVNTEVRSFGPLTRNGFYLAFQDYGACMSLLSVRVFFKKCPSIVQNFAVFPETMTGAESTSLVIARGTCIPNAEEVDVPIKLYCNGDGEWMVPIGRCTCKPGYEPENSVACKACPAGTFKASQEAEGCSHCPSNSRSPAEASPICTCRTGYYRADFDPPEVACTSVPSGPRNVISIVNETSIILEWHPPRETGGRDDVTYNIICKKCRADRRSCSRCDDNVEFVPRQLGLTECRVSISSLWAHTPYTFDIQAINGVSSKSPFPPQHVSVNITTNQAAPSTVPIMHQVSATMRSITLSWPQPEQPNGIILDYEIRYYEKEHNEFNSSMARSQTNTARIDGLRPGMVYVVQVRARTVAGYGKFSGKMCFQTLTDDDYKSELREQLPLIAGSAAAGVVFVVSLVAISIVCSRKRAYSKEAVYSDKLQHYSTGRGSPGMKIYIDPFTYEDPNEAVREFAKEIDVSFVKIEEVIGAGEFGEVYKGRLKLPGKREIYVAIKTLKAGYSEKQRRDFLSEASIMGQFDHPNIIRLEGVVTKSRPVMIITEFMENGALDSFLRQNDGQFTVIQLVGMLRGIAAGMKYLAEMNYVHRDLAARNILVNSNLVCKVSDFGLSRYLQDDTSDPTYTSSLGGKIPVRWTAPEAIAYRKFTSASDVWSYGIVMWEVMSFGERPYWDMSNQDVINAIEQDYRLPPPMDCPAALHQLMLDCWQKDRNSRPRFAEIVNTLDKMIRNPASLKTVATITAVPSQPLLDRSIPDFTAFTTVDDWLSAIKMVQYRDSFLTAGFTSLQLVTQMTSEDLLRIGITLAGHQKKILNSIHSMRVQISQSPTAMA
# Assay: as above
row,Sequence,phosphorylation enrichment
1,VEDHFYEGGIG [TKT_Y564_YF],0.63
2,SVNIRYLLFPS [SERAC1_Y548],0.714
3,KLADVYQAELR [GFAP_Y116],0.533
4,ATDLAYYLVCK [ASL_Y375_R379C],1.08
5,NTVLGYFIGCI [GARS1_Y408_R412C],0.653
6,FTHSDYQFGQR [PKP2_Y166_S169G_YF],0.389
7,NGPDVYVLPVT [AATK_Y93_L97V],0.723
8,EFLKNYFTDKA [DSG2_Y775_R773K],0.527
9,VHKEGYNKLNQ [ZNF676_Y98],0.467
10,VDSNPYSRLVA [UBA5_Y53_M57V],0.55
11,VDSAHYKLLET [DTX3L_Y385],0.355
12,SEDANYMRVSC [TTC3_Y1288_K1289M],2.98
13,KVITDYFVDMK [MPP4_Y566_YF],0.429
14,AKQVGCENAGT [PC_Y304_Y304C],0.407
15,TFAVSYLPDMS [FLNC_Y1602_T1599A_YF],0.598
16,SSAETYSRMRL [NBEAL2_Y1835],0.443
17,AVAFLYFKSIG [ADGRL4_Y301_V300L_YF],0.683

row,Sequence,phosphorylation enrichment
1,TLQSMSGCDVG [HLA-B_Y123_Y123S],0.488
2,SVTCTYSPAPN [TP53_Y126_L130P],0.517
3,FSGIFYKPESL [L2HGDH_Y103_H98Y_YF],0.5
4,GPKSTYISSAG [GOLGA5_Y62_A67G],0.298
5,QGLRLYRSHLA [BTK_Y617_P619S],0.718
6,VISNAYVDLSP [HSD17B4_Y602_A606S],0.443
7,YLGEEYVKAVG [TF_Y674],0.454
8,QKLPSYILENN [VPS13B_Y2774],0.787
9,VFDMLYQLANL [USP24_Y1087],1.32
10,VNKIYHPDFIV [LIG3_Y768_Y768H],0.355
11,FADIAYNFRHR [PAH_Y166_G171R_YF],0.343
12,KVALVYGQMNE [ATP5F1B_Y269],0.446
13,FARNCYVAGQF [G6PD_Y107_S106C_YF],0.505
14,IFGVSYDEFRF [CFTR_Y512_YF],0.456
15,HLLRIYFDITD [MMP27_Y307_W304L_YF],1.53
16,STTSDYQWDFS [MTDH_Y364_V368F],0.905
